The text below walks through data of article PMC6180126, “A guanine-flipping and sequestration mechanism for G-quadruplex unwinding by RecQ helicases”.

Series [1] addresses T1, CsRecQ catalytic core S245A (Cronobacter sakazakii, UniProt A7MQK9 1-521, S245A). The series can be described thus: X-ray crystallography; discontinuous density in helicase/winged-helix cleft; 20 mM Tris-HCl pH 8.0, 100 mM NaCl, 1 mM MgCl2, 1 mM 2-mercaptoethanol, 0.1 mg/mL BSA, 4% glycerol; 5 nM DNA, 30 min at room temperature, read at 25 C (G4 folded in 10 mM Tris-HCl pH 8.0, 100 mM KCl). The note with it: protein: recombinant; tags: N-terminal His tag removed (thrombin); antiparallel G4 with 12 nt 3' ssDNA tail; resolved (unwound) in 6CRM.

Series [2] has as its target CsRecQ catalytic core (Cronobacter sakazakii, UniProt A7MQK9 1-521). The series can be described thus: fluorescence anisotropy; apparent Kd; 1 mM Mg2+; 20 mM Tris-HCl pH 8.0, 100 mM NaCl, 1 mM MgCl2, 1 mM 2-mercaptoethanol, 0.1 mg/mL BSA, 4% glycerol; 5 nM DNA, 30 min at room temperature, read at 25 C (G4 folded in 10 mM Tris-HCl pH 8.0, 100 mM KCl). The note with it: protein: recombinant, tags: N-terminal His tag removed (thrombin).

Series [3] addresses EcRecQ catalytic core (Escherichia coli, UniProt P15043 1-523). Described as above. The note with it: protein: recombinant, tags: N-terminal His tag removed (thrombin).
In series [4] the target is EcRecQ catalytic core D312A (Escherichia coli, UniProt P15043 1-523, D312A). The description is as above. The note with it: protein: recombinant, tags: N-terminal His tag removed (thrombin).
Series [5] has as its target T1, CsRecQ catalytic core S245A. The series can be described thus: fluorescence anisotropy; 1 mM Mg2+; Kd not determined (anisotropy decreased with time); 20 mM Tris-HCl pH 8.0, 100 mM NaCl, 1 mM MgCl2, 1 mM 2-mercaptoethanol, 0.1 mg/mL BSA, 4% glycerol; 5 nM DNA, 30 min at room temperature, read at 25 C (G4 folded in 10 mM Tris-HCl pH 8.0, 100 mM KCl). To be noted: protein: recombinant; tags: N-terminal His tag removed (thrombin); label: 3' FAM; intramolecular G4 (folded in 100 mM KCl) with 12 nt 3' ssDNA tail. Background: Polarisation of emitted light reports the rotation of a fluorescent probe.

Series [6] deals with T2, EcRecQ catalytic core S245A (Escherichia coli, UniProt P15043 1-523, S245A). The description is as above. The note with it: protein: recombinant; tags: N-terminal His tag removed (thrombin); label: 3' FAM; intramolecular G4 (folded in 100 mM KCl) with 12 nt 3' ssDNA tail.
For series [7], the target named is T1, CsRecQ catalytic core S245A. The series can be described thus: fluorescence anisotropy; apparent Kd; 1 mM Mg2+; 20 mM Tris-HCl pH 8.0, 100 mM NaCl, 1 mM MgCl2, 1 mM 2-mercaptoethanol, 0.1 mg/mL BSA, 4% glycerol; 5 nM DNA, 30 min at room temperature, read at 25 C (G4 folded in 10 mM Tris-HCl pH 8.0, 100 mM KCl). To be noted: protein: recombinant; tags: N-terminal His tag removed (thrombin); label: 3' FAM on Duplex 1; 18 bp, 3' overhang 12 nt on strand 1.

The target in series [8] is T2, EcRecQ catalytic core S245A. The series is described as above. The note with it: protein: recombinant; tags: N-terminal His tag removed (thrombin); label: 3' FAM on Duplex 1; 18 bp, 3' overhang 12 nt on strand 1.
Setting [9] is: label: 3' FAM, intramolecular G4 (folded in 100 mM KCl) with 12 nt 3' ssDNA tail.
[10] abbreviates: label: 3' FAM on Duplex 1, 18 bp, 3' overhang 12 nt on strand 1.

For the molecule TTAGGGTTAGGGTTAGGGTTAGGGTCGGTGCCTTACT (structured_DNA) [G4 DNA], the binding result in series [1] was “binds”.
For the molecule TTAGGGTTAGGGTTAGGGTTAGGGTCGGTGCCTTACT (structured_DNA) [F-G4], the Kd in series [2] (setting [9]) amounted to 4.7 ± 0.9 µM; in series [3] (setting [9]), 1000 ± 100 nM; in series [4] (setting [9]), 330 ± 40 nM. Besides, the binding result in series [5] and in series [6] was “binds” each time.

B1: Duplex 1/Duplex 2 (dsDNA)
DNA 1: GCGTGGGTAATTGTGCTTCAATGGACTGAC
DNA 2: AAGCACAATTACCCACGC
Take B1: the Kd in series [2] (setting [10]) is 2.9 ± 0.3 µM; in series [7], 4 ± 1.6 µM; in series [8], 2200 ± 200 nM; in series [3] (setting [10]), 950 ± 60 nM; in series [4] (setting [10]), 280 ± 20 nM.
